From the supplement of paper PMC9170038

Key:
MS2 coat protein [1] = assay: apparent KD of MS2 coat protein; designed switch direction (-1 OFF switch, 1 ON switch): 1; higher = weaker reporter binding; conditions: Eterna round: R98
Method: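 RNA-MaP: designed FMN/MS2 RNA switches (84 nt design region) are transcribed on-chip within common flanks and titrated with SNAP-549-labelled MS2 coat protein (about 1-3000 nM) in 100 mM Tris pH 7.5, 80 mM KCl, 4 mM MgCl2, without or with 200 uM FMN. Median apparent KD per design; activation ratio = KD,OFF / KD,ON.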

MS2 coat protein [2] = assay: apparent KD of MS2 coat protein, switch ON state; designed switch direction (-1 OFF switch, 1 ON switch): 1; higher = weaker reporter binding; conditions: FMN input: 0 or 200 uM; Eterna round: R93 (includes R88 designs)
Method in brief: (§1)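 With or without constant ligand, designed RNA switches in 100 mM Tris-HCl pH 7.5, 80 mM KCl and 4 mM MgCl2 were titrated with SNAP-549-labelled MS2 coat protein. Concentrations went up in twofold steps from 0.7 or 1.5 nM to 3 µM. The switches had been transcribed on-chip from Illumina sequencing clusters, and apparent KD is the per-design median of normalised cluster binding-curve fits.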

MS2 coat protein [3] = assay: apparent KD of MS2 coat protein, switch OFF state (with FMN for OFF switches, without FMN for ON switches); designed switch direction (-1 OFF switch, 1 ON switch): 1; higher = weaker reporter binding; conditions: FMN input: 0 or 200 uM; Eterna round: R93 (includes R88 designs)
Method in brief: as §1

Row | Sequence | apparent KD of MS2 coat protein (MS2 coat protein [1]; input ligand: FMN 200 uM) [µM] | apparent KD of MS2 coat protein (MS2 coat protein [1]; input ligand: none) [µM] | apparent KD of MS2 coat protein (MS2 coat protein [2]) [µM] | apparent KD of MS2 coat protein (MS2 coat protein [3]) [µM]
1 | AAAACAUGAGGAUCACCCAUGUAAAGAUCGGUUAUUAAAAGUGAGGAUAUACAAAAUUUUAUAUAGUAGAAGGCACUGGGUACA [JR_SSNG3_Sub001] | 0.0289 | 0.0278 |  | 
2 | CAGAGGAAGAGAGAGGAUAUCCAAAGGAAAACAUGAGGAUCACCCAUGUAAAAGGUAGGAAAUUGGGAGAAGGCUCAAGAGAGAG [salish99-ss2-064] |  |  | 0.0274 | 0.0346
3 | CAGGACCUAGGAUAGGAUAUAUGAAUAAUUACAUGAGGAUCACCCAUGUCCAUUUAUAUGGGAACAUAGAAGGGUUGUGGUUAUG [Mat - Same state - Malcolm Mod - D133] |  |  | 0.179 | 0.118
4 | CAUAGACAUGAGGAUCACCCAUGUAGAAUUAUGGGAGGAUAUACAAAGACGAGAGUCAGAGUAGAAGGCCUAGGAG [salish99-ss1-163] |  |  | 0.0244 | 0.034
5 | CAUCAUGCGCCUAAGGAUAUGUCUCACAAGACAUGAGGAUCACCCAUGUAGAAUAAAUAAAUGAUGCAGAAGGUGGAGCACAUGC [Leedanla] |  |  | 0.372 | 0.586
6 | CCACAACAUUGAGGAUAUGCACAGGAUCACCGUGUAGAAGGCAUCAGGGAGAAGGUGCAGAGGAUCACCCUGUAAGGAUAUCUA [pwkr2 ssNG1 DX.8] | 0.133 | 0.34 |  | 
7 | CCGAUGCAAAUAAAACAUGAGGAUCACCCAUGUGAGUCUCAUGAGGAUAUGCAGGUCUUUGACUUGCAGAAGGCAUGGCGUCGG [Mat - Same State NG 3 - JL Mod - D70] | 0.138 | 1.05 |  | 
8 | CGAAGACAUGAGGAUCACCCAUGUCGUCGUAACAGAGGAUAUGGGAGCGCCAAGGGCGCAUCAGAAGGCUGAAAAC [Beusle] |  |  | 0.0178 | 0.0251
9 | CGAAGACAUGAGGAUCACCCAUGUGGGAAUAUGGGAGGAUAUACAAAGACGAGAGUCAGAGUAGAAGGCCUAGGAC [salish99-ss1-108] |  |  | 0.0265 | 0.0755
10 | CGAAGACAUGAGGAUCACCCAUGUGGGAUUAUGGGAGGAUAUACAAAGACGAGAGUCAGAGUAGAAGGCCUAGGAA [salish99-ss1-124(!)] |  |  | 0.0233 | 0.0385
11 | CUGGACGUAGGAUAGGAUAUAUGAAUAAUUACAUGAGGAUCACCCAUGUCCAUUUAUAUGGGAACAUAGAAGGGUUGUGGUUAAG [Mat - Same state - Malcolm Mod - D145] |  |  | 0.16 | 0.241
12 | GAAAAACAUGAGGAUCACCCAUGUAAGAUAAACACAGGAUAUGCGAAAAUAAACAAAUAAGCAGAAGGGUGAAAAG [Mat - Same State 1 - Tesla mod - 77] |  |  | 0.0185 | 0.0474
13 | GAAAAACAUGAGGAUCACCCAUGUAGAAAUAUGGGAGGAUAUACAAAGACGAAAGUCAAGGUAGAAGGCCUAAAAG [Mat - Same State 1 - Eli mod - 25] |  |  | 0.0375 | 0.0788
14 | GAAAAACAUGAGGAUCACCCAUGUAGAAAUAUGGGAGGAUAUACAAAGACGAAAGUCGAAGUAGAAGGCCUAAAAG [Mat - Same State 1 - Eli mod - D23] |  |  | 0.0255 | 0.0668
15 | GAAAAACAUGAGGAUCACCCAUGUAGAAAUAUGGGAGGAUAUACGAAGACGAAAGUCAAAGUAGAAGGCCUAAAAG [Mat - Same State 1 - Eli mod - D22] |  |  | 0.028 | 0.0573
16 | GAAAAACAUGAGGAUCACCCAUGUAGAAAUAUGGUAGGAUAUACAAAGACGAAAGUCAAAGUAGAAGGGCCAAAAG [Starry Same State 1.4 (mat747 round 1 mod)] |  |  | 0.013 | 0.019
17 | GAAAAACAUGAGGAUCACCCAUGUGAGAUAAACACAGGAUAUGCGAAAAUAAACAAAUAAGCAGAAGGGUGAAAAG [Mat - Same State 1 - Tesla mod - 80] |  |  | 0.0271 | 0.0924
18 | GAAAAACAUGAGGAUCACCCAUGUGGAAAUAUGGGAGGAUAUACGAAGACGAAAGUCGAAGUAGAAGGCCUAAAAG [Same State 1.4d (Mat - Mod of Eli - )] |  |  | 0.0295 | 0.0981
19 | GAAAUAAAAAGACAGGAUAUCCAAAAGAAAACAUGAGGAUCACCCAUGUAAAGAAAAUAAAAAUGGGAGAAGGGUCAAAUAAAAG [Mat - Same State 2 - JL mod - D54] |  |  | 0.024 | 0.0328
20 | GAAGACAUAGUAUAGGAUAUAUGAAUAAUUACAUGAGGAUCACCCAUGUGCAUUUAUAUGCGAACAUAGAAGGGUGGUAGUUGUC [Mat - Same state - Malcolm Mod - D129] |  |  | 0.633 | 0.0592

Row | Sequence | apparent KD of MS2 coat protein (MS2 coat protein [1]; input ligand: FMN 200 uM) [µM] | apparent KD of MS2 coat protein (MS2 coat protein [1]; input ligand: none) [µM] | apparent KD of MS2 coat protein (MS2 coat protein [2]) [µM] | apparent KD of MS2 coat protein (MS2 coat protein [3]) [µM]
21 | GACGAAAUCUUAGGAUAUCGAGUGGAAUACACUCGAGAAGGAAGAUAUACCUGAGGAUCACCCAGGUAAAACUGGACGUCAAUA [Same State NG1 - A3C, U17G Submission 8H U68A, U7A] | 0.0266 | 0.0298 |  | 
22 | GAGAAGAAGAGAGAGGAUAUCCAAAGGAAAACAUGAGGAUCACCCAUGUAAAAGGUAGGAAAUUGGGAGAAGGCUCAAAAGAGGG [salish99-ss2-028(!)] |  |  | 0.0199 | 0.044
23 | GAGGACAUAGUACAGGAUAUAUGAAUAGUUACAUGAGGAUCACCCAUGUGCAUUUAUAUGCGAACAUAGAAGGGUGGUAGUUAUC [SameState2 Malc#30] |  |  | 0.136 | 0.0689
24 | GAUAAACAUGAGGAUCACCCAUGUAGAUAUAUGGGAGGAUAUACAAAGACGAUAGUCAUAGUAGAAGGCCUAAUAG [77%, Mat - Mod of Eli - With 5 more U's] |  |  | 0.03 | 0.0912
25 | GAUAGACAUGAGGAUCACCCAUGUAGAAUUAUGGGAGGAUAUACAAAGACGAGAGUCAGAGUAGAAGGCCUAGGAU [salish99-ss1-157] |  |  | 0.0236 | 0.0544
26 | GCUCCAGCUAGCAAGGAUAUGUAGGAUGCUACAUGAGGAUCACCCAUGUGCUGAAAUAAGUCCCGGCAGAAGGUGUGACUGGAGA [Laedtear] |  |  | 0.0168 | 0.0269
27 | GGAAAACAUGAGGAUCACCCAUGUGAAAACGUGGGAGGAUAUCCAUGGAAACCAUACUGUGGAGAAGGCCCAUGUC [EteRNA is fun!] |  |  | 0.0196 | 0.0652
28 | GGCAGUCCGACACAGGAUAUGGGUAACGAAACAUGAGGAUCACCCAUGUGGAAACAUCGGGUUGCCUAGAAGGGUGGAAAGAUUG [Xeti] |  |  | 0.0264 | 0.259
29 | GGGAGACAUGAGGAUCACCCAUGUGAGAAGAGGCGAGGAUAUCGAAAGAAAGAAGAGAAACGAGAAGGCGCGAGCU [salish99-SS1-056] |  |  | 0.0281 | 0.062
30 | GGGAGACAUGAGGAUCACCCAUGUGAGAAGAGGCGAGGAUAUCGAAAGAAAGAAGAGAAACGAGAAGGCGCGAGGA [salish99-SS1-051] |  |  | 0.0377 | 0.0447
31 | GGGAGGAAGAGAGAGGAUAUCCAAAGGAAAACAUGAGGAUCACCCAUGUAAAAGGUAGGAAAUUGGGAGAAGGCUCAAAAGAAGG [salish99-ss2-045] |  |  | 0.0276 | 0.0365
32 | GUAGAACAUGAGGAUCACCCAUGUGAAGACGCAUGAGGAUAUAUACGUAAAUAGCAUACGAUAGAAGGCAUGAUAA [JR_SS001_Sub1703] |  |  | 0.0255 | 0.0535
33 | GUAUGCAUGAGGUAGGAUAUCCAAAACAAAACAUGAGGAUCACCCAUGUAAACAAACAACAAAUGGGAGAAGGACCACAUGUAUAC [Ex6 sub 5] |  |  | 0.0131 | 0.0271
34 | UAACAGCACAGGUAGGAUAUGUAGGGUGGUACAUGAGGAUCACCCAUGUAUCCACCCUUCGAAAGGCAGAAGGGCCUGUCGCUAC [Velabibe] |  |  | 0.0146 | 0.0204
35 | UAAUAAUAAACCAAGGAUAUGGAGUAAAGAACAUGAGGAUCACCCAUGUGUAGCGUGGAAUAGUACCAGAAGGUGGAGUGAAAUG [JR_SS002_Sub1003] |  |  | 0.0541 | 0.0523
36 | UAGAGAACAGGGUAGGAUAUGCAUGGUCGUACAUGAGGAUCACCCAUGUAGUCUAGAAAAUAAAUGCAGAAGGACCAAAAGAAAA [Edsodiin] |  |  | 0.0156 | 0.032
37 | UAGAGACAUGAGGAUCACCCAUGUAGGAUUAUGGGAGGAUAUACAAAGACGAGAGUCAGAGUAGAAGGCCUAGGAU [salish99-ss1-134(!)] |  |  | 0.0274 | 0.0614
38 | UAUAAACAUGAGGAUCACCCAUGUAGAAAUAUGGGAGGAUAUACGAAGACGAAAGUCAAAGUAGAAGGCCUAAUAU [Mat - Same State 1 - Eli mod - D113] |  |  | 0.0169 | 0.0492
39 | UCCUUACAUGAGGAUCACCCAUGUCGCAGGAAUCAAGGAUAUGGGACCGCAAUGCGGAAACCAGAAGGUGACAAAA [Zaesor] |  |  | 0.158 | 0.322
40 | UUAUUACAUGAGGAUCACCCAUGUUUAGUGGUGACAGGAUAUACGAAAAAAAAAAAAAAAGUAGAAGGGUCUUAUU [SS 1.1] |  |  | 0.162 | 0.0505
